Consider one molecule from paper PMC3714537 (Molecular cell, 2012).

The target of the assay is linear tetra-Ub (UniProt P0CG47 1-76; P0CG47 1-76; P0CG47 1-76; P0CG47 1-76).

B1: GFP-UBAN (EGFP fused to the CoZi domain of murine NEMO, amino acids 183-339) (domain or fragment, UniProt O88522 183-339, looked up)
chain: QLESEREVLQQQHSVQVDQLRMQNQSVEAALRMERQAASEEKRKLAQLQAAYHQLFQDYDSHIKSSKGMQLEDLRQQLQQAEEALVAKQELIDKLKEEAEQHKIVMETVPVLKAQADIYKADFQAERHAREKLVEKKEYLQEQLEQLQREFNKLKVG
As a reminder, the Kd is the equilibrium constant for the complex coming apart. A higher Kd goes with lower affinity. B1 yielded a Kd of 4.7 µM.
